Experimental data from patent US20080020978A1 (Amgen, published 2008).
Positions count from the first letter of the chain named. Like-named read-outs stand apart in the source and are kept apart here. Square brackets hold non-standard residues; d marks the D form.

B1: SEQ ID NO 12 (peptide)
peptide: Ac-WVTHRLAGLLSRSGGVVKNNFVPTDVGPFAF-NH2
modifications: not fully specified (residue 18); printed as Ac-WVTHRLAGLLSRSGGVVKNNFVPTDVGPFAF-NH2
B2: SEQ ID NO 13 (peptide)
peptide: Ac-WVTHRLAGLLSRSGGVVKNNFVPTDVGPFAF-NH2
modifications: not fully specified (residue 18); printed as Ac-WVTHRLAGLLSRSGGVVKNNFVPTDVGPFAF-NH2
B3: SEQ ID NO 14 (peptide)
peptide: Ac-WVTHRLAGLLSRSGGVVCNNFVPTDVGPFAF-NH2
modifications: not fully specified (residue 18); printed as Ac-WVTHRLAGLLSRSGGVVCNNFVPTDVGPFAF-NH2
B4: SEQ ID NO 17 (peptide)
peptide: Ac-WVTHRLAGLLSRSGGVVRCNFVPTDVGPFAF-NH2
modifications: not fully specified (residue 19); printed as Ac-WVTHRLAGLLSRSGGVVRCNFVPTDVGPFAF-NH2
B5: SEQ ID NO 19 (peptide)
peptide: Ac-WVTHRLAGLLSRSGGVKRNNFVPTDVGPFAF-NH2
modifications: not fully specified (residue 17); printed as Ac-WVTHRLAGLLSRSGGVKRNNFVPTDVGPFAF-NH2
B6: SEQ ID NO 21 (peptide)
peptide: WVTHXLAGLLSRSGGVVRKNFVPTDVGPFAF
modifications: Ac-WVTH(hR)LAGLLSRSGGVVRKNFVPTDVGPFAF-NH2
B7: SEQ ID NO 22 (peptide)
peptide: B6 peptide
modifications: Ac-WVTH(hR)LAGLLSRSGGVVRKNFVPTDVGPFAF-NH2; 20 k Da PEG, Amine linkage
B8: SEQ ID NO 23 (peptide)
peptide: B6 peptide with X5R, R12X
modifications: Ac-WVTHRLAGLLS(hR)SGGVVRKNFVPTDVGPFAF-NH2
B9: SEQ ID NO 24 (peptide)
peptide: B6 peptide with X5R, R12X
modifications: Ac-WVTHRLAGLLS(hR)SGGVVRKNFVPTDVGPFAF-NH2; 20 k Da PEG, Amine linkage
B10: SEQ ID NO 25 (peptide)
peptide: B6 peptide with R12X
modifications: Ac-WVTH(hR)LAGLLS(hR)SGGVVRKNFVPTDVGPFAF-NH2
B11: SEQ ID NO 26 (peptide)
peptide: B6 peptide with R12X
modifications: Ac-WVTH(hR)LAGLLS(hR)SGGVVRKNFVPTDVGPFAF-NH2; 20 k Da PEG, Amine linkage
B12: SEQ ID NO 27 (peptide)
peptide: B6 peptide
modifications: Ac-WVTH(Cit)LAGLLSRSGGVVRKNFVPTDVGPFAF-NH2
B13: SEQ ID NO 28 (peptide)
peptide: B6 peptide
modifications: Ac-WVTH(Cit)LAGLLSRSGGVVRKNFVPTDVGPFAF-NH2; 20 k Da PEG, Amine linkage
B14: SEQ ID NO 29 (peptide)
peptide: B6 peptide with X5R, R12X
modifications: Ac-WVTHRLAGLLS(Cit)SGGVVRKNFVPTDVGPFAF-NH2
B15: SEQ ID NO 30 (peptide)
peptide: B6 peptide with X5R, R12X
modifications: Ac-WVTHRLAGLLS(Cit)SGGVVRKNFVPTDVGPFAF-NH2; 20 k Da PEG, Amine linkage
B16: SEQ ID NO 31 (peptide)
peptide: B6 peptide with R12X
modifications: Ac-WVTH(Cit)LAGLLS(Cit)SGGVVRKNFVPTDVGPFAF-NH2
B17: SEQ ID NO 32 (peptide)
peptide: B6 peptide with R12X
modifications: Ac-WVTH(Cit)LAGLLS(Cit)SGGVVRKNFVPTDVGPFAF-NH2; 20 k Da PEG, Amine linkage
B18: SEQ ID NO 33 (peptide)
peptide: Ac-WVTHRLAGLLSASGGVVRCNFVPTDVGPFAF-NH2
B19: SEQ ID NO 34 (peptide)
peptide: Ac-WVTHRLAGLLSASGGVVRCNFVPTDVGPFAF-NH2
modifications: not fully specified (residue 19); printed as Ac-WVTHRLAGLLSASGGVVRCNFVPTDVGPFAF-NH2
B20: SEQ ID NO 35 (peptide)
peptide: Ac-WVTHRLAGLLSQSGGVVRCNFVPTDVGPFAF-NH2
B21: SEQ ID NO 36 (peptide)
peptide: Ac-WVTHRLAGLLSQSGGVVRCNFVPTDVGPFAF-NH2
modifications: not fully specified (residue 19); printed as Ac-WVTHRLAGLLSQSGGVVRCNFVPTDVGPFAF-NH2
B22: SEQ ID NO 37 (peptide)
peptide: Ac-WVTHRLAGLLSQSGGVVRKNFVPTDVGPFAF-NH2
B23: SEQ ID NO 38 (peptide)
peptide: Ac-WVTHRLAGLLSQSGGVVRKNFVPTDVGPFAF-NH2
modifications: not fully specified (residue 19); printed as Ac-WVTHRLAGLLSQSGGVVRKNFVPTDVGPFAF-NH2
B24: SEQ ID NO 39 (peptide)
peptide: Ac-WVTHQLAGLLSQSGGVVRKNFVPTDVGPFAF-NH2
B25: SEQ ID NO 40 (peptide)
peptide: Ac-WVTHQLAGLLSQSGGVVRKNFVPTDVGPFAF-NH2
modifications: not fully specified (residue 19); printed as Ac-WVTHQLAGLLSQSGGVVRKNFVPTDVGPFAF-NH2
B26: SEQ ID NO 41 (peptide)
peptide: Ac-WVTHRLAGLLS[dR]SGGVVRCNFVPTDVGPFAF-NH2
SMILES: CC(=O)N[C@@H](Cc1c[nH]c2ccccc12)C(=O)N[C@H](C(=O)N[C@H](C(=O)N[C@@H](Cc1c[nH]cn1)C(=O)N[C@@H](CCCNC(=N)N)C(=O)N[C@@H](CC(C)C)C(=O)N[C@@H](C)C(=O)NCC(=O)N[C@@H](CC(C)C)C(=O)N[C@@H](CC(C)C)C(=O)N[C@@H](CO)C(=O)N[C@H](CCCNC(=N)N)C(=O)N[C@@H](CO)C(=O)NCC(=O)NCC(=O)N[C@H](C(=O)N[C@H](C(=O)N[C@@H](CCCNC(=N)N)C(=O)N[C@@H](CS)C(=O)N[C@@H](CC(N)=O)C(=O)N[C@@H](Cc1ccccc1)C(=O)N[C@H](C(=O)N1CCC[C@H]1C(=O)N[C@H](C(=O)N[C@@H](CC(=O)O)C(=O)N[C@H](C(=O)NCC(=O)N1CCC[C@H]1C(=O)N[C@@H](Cc1ccccc1)C(=O)N[C@@H](C)C(=O)N[C@@H](Cc1ccccc1)C(N)=O)C(C)C)[C@@H](C)O)C(C)C)C(C)C)C(C)C)[C@@H](C)O)C(C)C
B27: SEQ ID NO 42 (peptide)
peptide: Ac-WVTHRLAGLLS[dR]SGGVVRCNFVPTDVGPFAF-NH2
modifications: not fully specified (residue 19); printed as Ac-WVTHRLAGLLSrSGGVVRCNFVPTDVGPFAF-NH2
B28: SEQ ID NO 136 (peptide)
peptide: WVTHXLAGLLSXSGGVVXKNXVXTDVGPXAF
modifications: Ac-WVTH[Cit]LAGLLS[Cit]SGGVV[hArg]KN[pI-Phe]V[Oic]TDVGP[pI-Phe]AF-NH2

Key:
[1] = molecular target: T1, CGRP1 receptor (CRLR/RAMP1 complex) of human neuroblastoma SK-N-MC cells (human, UniProt Q16602 23-461; O60894 27-148); test: cell-based or functional assay
T1 sequence (Q16602 23-461, chain 1 of 2): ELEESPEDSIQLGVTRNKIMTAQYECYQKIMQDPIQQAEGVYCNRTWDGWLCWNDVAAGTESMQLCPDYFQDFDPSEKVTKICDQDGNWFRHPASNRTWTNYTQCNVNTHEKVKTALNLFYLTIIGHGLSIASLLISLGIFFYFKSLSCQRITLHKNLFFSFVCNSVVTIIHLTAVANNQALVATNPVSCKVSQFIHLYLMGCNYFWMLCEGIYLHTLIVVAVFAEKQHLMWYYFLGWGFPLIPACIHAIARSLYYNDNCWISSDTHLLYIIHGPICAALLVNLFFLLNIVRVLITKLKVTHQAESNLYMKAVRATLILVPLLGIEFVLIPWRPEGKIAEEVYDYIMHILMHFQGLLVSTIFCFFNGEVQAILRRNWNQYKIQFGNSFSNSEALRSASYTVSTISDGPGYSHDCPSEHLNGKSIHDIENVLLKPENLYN
T1 sequence (O60894 27-148, chain 2 of 2): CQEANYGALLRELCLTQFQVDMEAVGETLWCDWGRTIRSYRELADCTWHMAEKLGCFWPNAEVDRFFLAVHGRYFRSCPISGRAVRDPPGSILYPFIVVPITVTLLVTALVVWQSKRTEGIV

[2] = molecular target: T1, CGRP1 receptor (CRLR/RAMP1 complex) of …; test: cell-based or functional assay; remark: listed apart in the source
[3] = molecular target: T1, CGRP1 receptor (CRLR/RAMP1 complex) of …; test: cell-based or functional assay; remark: listed apart in the source
[4] = molecular target: T1, CGRP1 receptor (CRLR/RAMP1 complex) of …; test: 125I-hαCGRP competition, SK-N-MC membranes
Description: CGRP₁ binding experiments. […] The plates were incubated at room temperature for 2 hour with shaking at 60 rpm, then the contents of each well were filtered over 0.5% polyethyleneimine (PEI)-treated (at least one hour) GF/C 96-well filter plates. The GF/C filter plates were washed 6 times with ice-cold 50 mM Tris, pH 7.5 and dried in an oven at 55 C for 1 hour. The bottoms of the GF/C plates were then sealed, and 40 μl Microscint™ 20 was added to each well, then the tops of the GF/C plates were sealed with TopSeal™-A, a press-on adhesive sealing film, and the GF/C plates were counted with TopCount NXT (Packard). The data were analyzed by using ActivityBase (IDBS) or Prizm (GraphPad) software.

[5] = molecular target: T1, CGRP1 receptor (CRLR/RAMP1 complex) of …; test: cell-based or functional assay; remark: listed apart in the source

| Binder | IC50 [3] | also measured |
| --- | --- | --- |
| B1 |  | IC50 [1]: 3.05 nM; fold loss of antagonist activity against SEQ ID NO:5 [2]: > 15 fold |
| B2 |  | IC50 [1]: 2.15 nM; fold loss of antagonist activity against SEQ ID NO:5 [2]: > 15 fold |
| B3 |  | IC50 [1]: 2.2 nM |
| B4 |  | IC50 [1]: 1.9 nM |
| B5 |  | IC50 [1]: 0.98 nM |
| B6 | 0.44 nM |  |
| B7 | 0.36 nM |  |
| B8 | 0.57 nM |  |
| B9 | 0.33 nM |  |
| B10 | 2.1 nM | fold loss of antagonist activity against SEQ ID NO:21 and 23 [2]: ~5 fold |
| B11 | 0.37 nM |  |
| B12 | 0.57 nM |  |
| B13 | 2.08 nM |  |
| B14 | 0.58 nM |  |
| B15 | 0.96 nM |  |
| B16 | 1.8 nM | Ki [4]: 0.46 nM; fold loss of potency against SEQ ID NO:27 and 29 [2]: ~3 fold |
| B17 | 3.74 nM |  |
| B18 | 2.75 nM |  |
| B19 | 6.2 nM |  |
| B20 | 0.37 nM |  |
| B21 | 4.69 nM | fold loss of antagonist activity against SEQ ID NO:35 [2]: > 12 fold |
| B22 | 0.56 nM |  |
| B23 | 0.11 nM | fold change in potency against SEQ ID NO:36 [2]: > 42 fold |
| B24 | 0.53 nM |  |
| B25 | 1.33 nM |  |
| B26 | 0.59 nM |  |
| B27 | 19.4 nM | fold loss of antagonist activity against SEQ ID NO:41 [2]: > 32 fold |
| B28 |  | IC50 [5]: 2.34 nM |
